Experimental data as given in patent US20180306789A1 (IMMATICS BIOTECHNOLOGIES, published 2018).

B1: TCR R36P3F9 (TCR, V domains shown)
V domain 1: SQQGEEDPQALSIQEGENATMNCSYKTSINNLQWYRQNSGRGLVHLILIRSNEREKHSGRLRVTLDTSKKSSSLLITASRAADTASYFCATVSNYQLIWGAGTKLIIKP
V domain 2: EAQVTQNPRYLITVTGKKLTVTCSQNMNHEYMSWYRQDPGLGLRQIYYSMNVEVTDKGDVPEGYKVSRKEKRNFPLILESPSPNQTSLYFCASSSTSGGLSGETQYFGPGTRLLVLE
B2: TCR R53P2A9 (TCR, V domains shown)
V domain 1: QTVTQSQPEMSVQEAETVTLSCTYDTSESDYYLFWYKQPPSRQMILVIRQEAYKQQNATENRFSVNFQKAAKSFSLKISDSQLGDAAMYFCAYNSYAGGTSYGKLTFGQGTILTVHP
V domain 2: DAGVTQSPTHLIKTRGQQVTLRCSPISGHKSVSWYQQVLGQGPQFIFQYYEKEERGRGNFPDRFSARQFPNYSSELNVNALLLGDSALYLCASSLDGTSEQYFGPGTRLTVTE
B3: TCR R52P2G11 (TCR, V domains shown)
V domain 1: RGNGKNQVEQSPQSLIILEGKNCTLQCNYTVSPFSNLRWYKQDTGRGPVSLTIMTFSENTKSNGRYTATLDADTKQSSLHITASQLSDSASYICVVSAYGKLQFGAGTQVVVTP
V domain 2: DAGVIQSPRHEVTEMGQEVTLRCKPISGHNSLFWYRQTMMRGLELLIYFNNNVPIDDSGMPEDRFSAKMPNASFSTLKIQPSEPRDSAVYFCASSLGSPDGNQPQHFGDGTRLSILE

Target: HLA-A*02-presented DCAF4L2-001 on target cells (human)
Assay: cell-based or functional assay

First: B1
Second: B2
The “EC50 of target peptide titration (IFNγ release)” value of the first is 3.3-fold lower: about 3.6 nM for the first, about 11.8 nM for the second.

In the case of B3, the “EC50 of target peptide titration (IFNγ release)” value is reported as about 8.5 nM.
